B3: full-length Mdm36 (residues 1-579) (natural protein, Saccharomyces cerevisiae, UniProt Q06820 1-579, looked up)
chain: MDENGTVKPGYELKGLNSGNSRSNMDKDPIVSKFHRAGLNDSADEEDTDINGNRNTSWITSMISEEKRKVEGKSMLNDEEDLHLSKATLNKCDALVKILADIIKLEFVIHQSWYIRSLHKSVLIQFEVETSGGNKNSAGDSGDDDDDNHNGNLDDSFYKDLSLKCIKKCEKSSLALESLSRDIDQIRDFIMSNTIEDNRVDRLLQNSMTLLLECWIYSMKRLRRLRMKIAGIFVRSKLLLIDHELVTIWHFLQEQNEHETVNNENELKLAETIKSYRAFIKIFIQQLEDSESGSPSSSLFEECLHVFLDIESMYNSLNLNWLLNENKALQERLLSPSSTSENDHTNNLPVIDETKEIEDISSFVNSIVDASMLTHDLTPINSSDSDNLSNGEIDRLDGRRLSSSTSDMSLMMQRTSLQKQLPSLLTAFNNARRLEQELQNACKVNDNKHSTKDTDSNIRRNEHAMSSSVSSIISQNSTLASPSPPMSSSFISTAPSQSSSRMSTLPLSPSSSLLESQSQTLKNNMSQWLNQSRSGLNGTKLIPTNHIGFHSNVLNTLYGIGGGPVSKSYKSNQPSSQNT

Series [1] deals with B3. Nature of the series: ITC. For orientation: In ITC the heat of successive injections is recorded.
The series “SEC-MALS” deals with the molecule itself. Briefly: SEC-MALS. (In general: SEC sorts molecules by how far they enter the pores of the column.)
Series [2] addresses B3. Briefly: SEC.

B1: coiled-coil domain of Num1 (residues 97-294) (domain or fragment, Saccharomyces cerevisiae, UniProt Q00402 97-294, looked up)
chain: MNFTLELSENLLVECRKLQSSNEAKNEQIKSLKQIKESLSDKIEELTNQKKSFMKELDSTKDLNWDLESKLTNLSMECRQLKELKKKTEKSWNDEKESLKLLKTDLEILTLTKNGMENDLSSQKLHYDKEISELKERILDLNNENDRLLISVSDLTSEINSLQSNRTERIKIQKQLDDAKASISSLKRKVQKKYYQKQ
For orientation: Kd means the free concentration of one partner at which half of the binding sites on the other are occupied at equilibrium, for simple one-to-one binding. Read a high Kd as weaker binding. For orientation: stoichiometry N means the number of molecules, sites or subunits per partner or assembly. Molecule B1 registered a Kd in series [1] of 121 nM. Also, the entries for the “stoichiometry N” value (in series [1]; in “SEC-MALS”) were 1 Num1CC per Mdm36 (1:1) and 2, respectively.

B2: Num1 (97-175) (domain or fragment, Saccharomyces cerevisiae, UniProt Q00402 97-175, looked up)
chain: MNFTLELSENLLVECRKLQSSNEAKNEQIKSLKQIKESLSDKIEELTNQKKSFMKELDSTKDLNWDLESKLTNLSMECR
Consider B2, for which the binding result in series [2] is recorded as “binds”. For the molecule B3, in “SEC-MALS”, the “stoichiometry N” value is 2.

B4: Num1 (97-195), N-terminal half of Num1CC (domain or fragment, Saccharomyces cerevisiae, UniProt Q00402 97-195, looked up)
chain: MNFTLELSENLLVECRKLQSSNEAKNEQIKSLKQIKESLSDKIEELTNQKKSFMKELDSTKDLNWDLESKLTNLSMECRQLKELKKKTEKSWNDEKESL
In the case of B4, in series [2], the binding result is given as “binds”.

The values above are taken from publication PMC8112169 (Molecules and Cells, 2021).
